Reference: paper PMC3441751, “Structure and Assembly of a Trans-Periplasmic Channel for Type IV Pili in Neisseria meningitidis” (PLoS Pathogens, 2012)

Biological target: the molecule itself
Test: cryo-EM structure; single particle averaging of unstained frozen-hydrated PilQ complexes in a dodecyl maltoside-containing buffer at 1 mg/ml; 25,303 particles; C12 symmetry

B1: PilQ dodecamer (complete N. meningitidis PilQ oligomer) (natural protein)
chain: GNITDIKVSSLPNKQKIVKVSFDKEIVNPTGFVTSSPARIALDFEQTGISMDQQVLEYADPLLSKISAAQNSSRARLVLNLNKPGQYNTEVRGNKVWIFINESDDTVSAPARPAVKAAPAAPAKQQAAAPSTKSAVSVSEPFTPAKQQAAAPFTESVVSVSAPFSPAKQQAAASAKQQAAAPAKQQAAAPAKQQAAAPAKQTNIDFRKDGKNAGIIELAALGFAGQPDISQQHDHIIVTLKNHTLPTTLQRSLDVADFKTPVQKVTLKRLNNDTQLIITTAGNWELVNKSAAPGYFTFQVLPKKQNLESGGVNNAPKTFTGRKISLDFQDVEIRTILQILAKESGMNIVASDSVNGKMTLSLKDVPWDQALDLVMQARNLDMRQQGNIVNIAPRDELLAKDKALLQAEKDIADLGALYSQNFQLKYKNVEEFRSILRLDNADTTGNRNTLISGRGSVLIDPATNTLIVTDTRSVIEKFRKLIDELDVPAQQVMIEARIVEAADGFSRDLGVKFGATGKKKLKNDTSAFGWGVNSGFGGDDKWGAETKINLPITAAANSISLVRAISSGALNLELSASESLSKTKTLANPRVLTQNRKEAKIESGYEIPFTVTSIANGGSSTNTELKKAVLGLTVTPNITPDGQIIMTVKINKDSPAQCASGNQTILCISTKNLNTQAMVENGGTLIVGGIYEEDNGNTLTKVPLLGDIPVIGNLFKTRGKKTDRRELLIFITPRIMGTAGNSLRY
notes: PilQ secretin, Neisseria meningitidis; The source of the sample is in Text S1; also called entire PilQ dodecamer; intact PilQ oligomer; source: PilQ complexes resuspended in a dodecyl maltoside-containing buffer at 1 mg/ml; copies: 12
  stoichiometry N: 12
